Measurements as given in publication PMC12416549 (2024).
Residue numbers refer to the chain shown, from its start. Numbers in names are those of the source.

B1: A106P (designed binder)
chain: MTLQELLREEALRRAEAEAFRYALELLAEKFPEQKEYLLDLAEEIESQIRSLSGVDVEDVRKFLDKEWAWVKELLAEHPAELAEVEAARAARLAELRAEVEAKVAP
B2: L74I (designed binder)
chain: B1 chain with L74I, P106A
B3: R50V (designed binder)
chain: B1 chain with R50V, P106A
B4: K103N (designed binder)
chain: B1 chain with K103N, P106A
B5: L26N (designed binder)
chain: B1 chain with L26N, P106A
B6: L41C (designed binder)
chain: B1 chain with L41C, P106A
B7: A90Q (designed binder)
chain: B1 chain with A90Q, P106A
B8: E84N (designed binder)
chain: B1 chain with E84N, P106A
B9: E81T (designed binder)
chain: B1 chain with E81T, P106A
B10: K30A (designed binder)
chain: B1 chain with K30A, P106A
B11: T2G (designed binder)
chain: B1 chain with T2G, P106A
B12: L82S (designed binder)
chain: B1 chain with L82S, P106A
B13: A69M (designed binder)
chain: B1 chain with A69M, P106A
B14: A42Y (designed binder)
chain: B1 chain with A42Y, P106A
B15: F63P (designed binder)
chain: B1 chain with F63P, P106A
B16: A15W (designed binder)
chain: B1 chain with A15W, P106A
B17: F63Q (designed binder)
chain: B1 chain with F63Q, P106A
B18: M1I (designed binder)
chain: B1 chain with M1I, P106A
B19: L24H (designed binder)
chain: B1 chain with L24H, P106A
B20: K30T (designed binder)
chain: B1 chain with K30T, P106A
B21: A90S (designed binder)
chain: B1 chain with A90S, P106A
B22: E5D (designed binder)
chain: B1 chain with E5D, P106A
B23: L96M (designed binder)
chain: B1 chain with L96M, P106A
B24: K30M (designed binder)
chain: B1 chain with K30M, P106A
B25: L96G (designed binder)
chain: B1 chain with L96G, P106A
B26: I49C (designed binder)
chain: B1 chain with I49C, P106A
B27: F63G (designed binder)
chain: B1 chain with F63G, P106A
B28: I49A (designed binder)
chain: B1 chain with I49A, P106A
B29: E99N (designed binder)
chain: B1 chain with E99N, P106A
B30: L7D (designed binder)
chain: B1 chain with L7D, P106A
B31: L12S (designed binder)
chain: B1 chain with L12S, P106A
B32: E36Y (designed binder)
chain: B1 chain with E36Y, P106A
B33: K35Y (designed binder)
chain: B1 chain with K35Y, P106A
B34: L27Q (designed binder)
chain: B1 chain with L27Q, P106A
B35: L24M (designed binder)
chain: B1 chain with L24M, P106A
B36: E5Q (designed binder)
chain: B1 chain with E5Q, P106A
B37: E44T (designed binder)
chain: B1 chain with E44T, P106A
B38: A15N (designed binder)
chain: B1 chain with A15N, P106A
B39: A28Q (designed binder)
chain: B1 chain with A28Q, P106A
B40: A87M (designed binder)
chain: B1 chain with A87M, P106A

Biological target: T1, TNFR1 (Homo sapiens, UniProt P19438)
T1 chain: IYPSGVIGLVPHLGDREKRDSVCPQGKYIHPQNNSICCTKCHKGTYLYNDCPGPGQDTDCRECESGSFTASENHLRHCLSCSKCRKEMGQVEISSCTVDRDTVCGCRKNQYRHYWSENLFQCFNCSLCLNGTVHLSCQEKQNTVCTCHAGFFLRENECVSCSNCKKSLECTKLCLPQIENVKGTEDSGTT
Test: yeast display SC50

Row | Binder | apparent Kd (screen)
1 | B1 | 0.539 nM
2 | B2 | 2.73 nM
3 | B3 | 1.4 nM
4 | B4 | 0.49 nM
5 | B5 | 0.49 nM
6 | B6 | 2.48 nM
7 | B7 | 0.593 nM
8 | B8 | 0.869 nM
9 | B9 | 0.539 nM
10 | B10 | 1.05 nM
11 | B11 | 1.16 nM
12 | B12 | 1.54 nM
13 | B13 | 0.79 nM
14 | B14 | 11.4 nM
15 | B15 | 2.48 nM
16 | B16 | 0.593 nM
17 | B17 | 2.73 nM
18 | B18 | 0.49 nM
19 | B19 | 1.54 nM
20 | B20 | 0.653 nM

Row | Binder | apparent Kd (screen)
21 | B21 | 0.49 nM
22 | B22 | 0.49 nM
23 | B23 | 0.718 nM
24 | B24 | 0.539 nM
25 | B25 | 2.48 nM
26 | B26 | 2.48 nM
27 | B27 | 0.869 nM
28 | B28 | 2.73 nM
29 | B29 | 0.718 nM
30 | B30 | 0.79 nM
31 | B31 | 1.16 nM
32 | B32 | 0.539 nM
33 | B33 | 0.446 nM
34 | B34 | 0.446 nM
35 | B35 | 0.718 nM
36 | B36 | 0.49 nM
37 | B37 | 9.41 nM
38 | B38 | 0.653 nM
39 | B39 | 4.83 nM
40 | B40 | 0.49 nM
